# Measured values: patent US20210275644A1 (OCTAPHARMA, published 2021)
# T1: Recombinant SIG-5 Fc-fusion protein (R&D Systems) (human, UniProt O15389 17-434, limits assumed)
# T1 construct: Bought from R&D Systems; Held on the plate by protein A; also called SIGLEC 5; not shown: Fc part of the bought fusion protein
# T1 sequence (looked up): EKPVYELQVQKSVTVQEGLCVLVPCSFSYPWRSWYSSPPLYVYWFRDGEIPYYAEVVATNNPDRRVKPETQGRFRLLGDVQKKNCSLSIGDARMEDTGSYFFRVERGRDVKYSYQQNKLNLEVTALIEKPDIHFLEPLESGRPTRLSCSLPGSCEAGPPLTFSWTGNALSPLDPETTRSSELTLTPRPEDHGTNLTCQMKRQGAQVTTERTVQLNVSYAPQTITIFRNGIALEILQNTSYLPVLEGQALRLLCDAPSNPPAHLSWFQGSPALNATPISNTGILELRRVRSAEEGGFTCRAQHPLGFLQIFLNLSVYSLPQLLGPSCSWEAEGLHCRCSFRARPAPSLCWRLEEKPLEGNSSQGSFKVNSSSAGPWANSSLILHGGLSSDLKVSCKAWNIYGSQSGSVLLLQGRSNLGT
# B1: Recombinant SIG-F (mouse equivalent of human SIG-8) Fc-fusion protein (R&D Systems) (Fc fusion)
# chain: TDGYSLSVTGSVTVQEGLCVFVACQVQYPNSKGPVFGYWFREGANIFSGSPVATNDPQRSVLKEAQGRFYLMGKENSHNCSLDIRDAQKIDTGTYFFRLDGSVKYSFQKSMLSVLVIALTEVPNIQVTSTLVSGNSTKLLCSVPWACEQGTPPIFSWMSSALTSLGHRTTLSSELNLTPRPQDNGTNLTCQVNLPGTGVTVERTQQLSVIYAPQKMTIRVSWGDDTGTKVLQSGASLQIQEGESLSLVCMADSNPPAVLSWERPTQKPFQLSTPAELQLPRAELEDQGKYICQAQNSQGAQTASVSLSIRSLLQLLGPSCSFEGQGLHCSCSSRAWPAPSLRWRLGEGVLEGNSSNGSFTVKSSSAGQWANSSLILSMEFSSNHRLSCEAWSDNRVQRATILLVSGPKVSQAGKSETSRGTVL
# notes: Bought from R&D Systems; not shown: Fc part of the bought fusion protein
# B2: Recombinant SIG-10 Fc-fusion protein (R&D Systems) (Fc fusion, human, UniProt Q96LC7 17-546, looked up)
# chain: MDGRFWIRVQESVMVPEGLCISVPCSFSYPRQDWTGSTPAYGYWFKAVTETTKGAPVATNHQSREVEMSTRGRFQLTGDPAKGNCSLVIRDAQMQDESQYFFRVERGSYVRYNFMNDGFFLKVTALTQKPDVYIPETLEPGQPVTVICVFNWAFEECPPPSFSWTGAALSSQGTKPTTSHFSVLSFTPRPQDHNTDLTCHVDFSRKGVSAQRTVRLRVAYAPRDLVISISRDNTPALEPQPQGNVPYLEAQKGQFLRLLCAADSQPPATLSWVLQNRVLSSSHPWGPRPLGLELPGVKAGDSGRYTCRAENRLGSQQRALDLSVQYPPENLRVMVSQANRTVLENLGNGTSLPVLEGQSLCLVCVTHSSPPARLSWTQRGQVLSPSQPSDPGVLELPRVQVEHEGEFTCHARHPLGSQHVSLSLSVHYSPKLLGPSCSWEAEGLHCSCSSQASPAPSLRWWLGEELLEGNSSQDSFEVTPSSAGPWANSSLSLHGGLSSGLRLRCEAWNVHGAQSGSILQLPDKKGLIST
# notes: Bought from R&D Systems; Held on the plate by protein A; not shown: Fc part of the bought fusion protein
# What was measured:
# [1] = molecular target: T2, Seq11 (recombinant vWF fragment AA 1-505 of SEQ ID NO: 1 with C-terminal Strep-Tag, from HEK 293) (human, UniProt P04275 764-1268, four O-glycosylation sites 485, 492, 493, 500 occupied (core 1, core 2 and/or extended core 1, sialylated)); assay: SIGLEC ELISA, Scatchard analysis of the binding curve (apparent KD); printed SIGLEC 8, ELISA done as in Examples 8 and 9 with SIG-F
# T2 construct: Expressed in HEK293 / MEXi-293 cells, purified on Strep-Tactin; not shown: C-terminal Twin-Strep-tag of the pDSG vector (IBA)
# [2] = molecular target: T3, vWF C-terminal fragment (V8 protease digest of plasma derived vWF) (human, UniProt P04275 2129-2813, biotinylated with EZ-Link Sulfo-NHS-Biotin); assay: ELISA: SIGLEC-Fc captured on a protein A plate (500 ng/well), biotinylated vWF fragment at 1 µg/mL, streptavidin-HRP, A492, single concentration; sheet says Siglec 8, legend says SIG-F
# T3 construct: the real molecule is only its C-terminal part; also called C-terminal vWF fragment
# [3] = molecular target: T4, full length plasmatic VWF (Wilate, Octapharma) (human, UniProt P04275 764-2813); assay: SPR (Biacore 3000): VWF immobilised on a CM5 chip by amine coupling, FVIII injected 0.2-45 nM; mean of five measurements
# T4 construct: multimer
# [4] = molecular target: T5, Plasma derived VWF (pdVWF), biotinylated (human, UniProt P04275 764-2813, biotinylated with EZ-Link Sulfo-NHS-Biotin; natural N- and O-glycans of plasma vWF); assay: ELISA: SIGLEC-Fc captured on a protein A plate (500 ng/well), biotinylated plasma derived vWF 0-0.8 µg/mL, streptavidin-HRP, A492
# T5 construct: Plasma-derived multimeric glycoprotein; also called von Willebrand factor; full length vWF
# [5] = molecular target: B1; assay: ELISA: SIGLEC-Fc captured on a protein A plate (500 ng/well), biotinylated cluster fragment at 4 µg/mL, streptavidin-HRP, A492, single concentration; sheet says Siglec 8, legend says SIG-F
# [6] = molecular target: T1, Recombinant SIG-5 Fc-fusion protein …; assay: ELISA: SIGLEC-Fc captured on a protein A plate (500 ng/well), biotinylated cluster fragment at 4 µg/mL, streptavidin-HRP, A492, single concentration
# [7] = molecular target: T6, Recombinant SIG-7 Fc-fusion protein (R&D Systems) (human, UniProt Q9Y286 19-357, limits assumed); assay: as above
# T6 construct: Bought from R&D Systems; Held on the plate by protein A; also called SIGLEC 7; not shown: Fc part of the bought fusion protein
# [8] = molecular target: T7, Recombinant SIG-9 Fc-fusion protein (R&D Systems) (human, UniProt Q9Y336 18-348); assay: as above
# T7 construct: Bought from R&D Systems; Held on the plate by protein A; also called SIGLEC 9; not shown: Fc part of the bought fusion protein
# [9] = molecular target: B2; assay: as above
# T3 sequence (P04275 2129-2813 limits assumed): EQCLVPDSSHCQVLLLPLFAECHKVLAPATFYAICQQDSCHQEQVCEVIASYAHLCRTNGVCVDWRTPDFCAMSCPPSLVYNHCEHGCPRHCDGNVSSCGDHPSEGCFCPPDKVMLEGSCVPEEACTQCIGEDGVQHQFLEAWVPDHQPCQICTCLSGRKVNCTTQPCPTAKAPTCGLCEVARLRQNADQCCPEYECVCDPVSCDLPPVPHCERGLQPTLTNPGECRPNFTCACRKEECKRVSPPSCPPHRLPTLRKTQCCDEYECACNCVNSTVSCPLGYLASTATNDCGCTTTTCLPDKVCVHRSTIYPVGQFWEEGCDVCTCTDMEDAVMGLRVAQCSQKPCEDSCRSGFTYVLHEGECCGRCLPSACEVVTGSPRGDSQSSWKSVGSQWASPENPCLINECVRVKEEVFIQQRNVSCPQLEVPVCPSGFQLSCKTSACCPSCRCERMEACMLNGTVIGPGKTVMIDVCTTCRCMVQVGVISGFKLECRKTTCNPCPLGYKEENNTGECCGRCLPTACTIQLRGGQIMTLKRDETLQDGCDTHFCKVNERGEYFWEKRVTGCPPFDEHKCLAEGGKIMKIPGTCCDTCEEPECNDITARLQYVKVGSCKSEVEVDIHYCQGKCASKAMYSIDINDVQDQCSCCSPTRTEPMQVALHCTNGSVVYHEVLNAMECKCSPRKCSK
# T6 sequence (Q9Y286 19-357 limits assumed): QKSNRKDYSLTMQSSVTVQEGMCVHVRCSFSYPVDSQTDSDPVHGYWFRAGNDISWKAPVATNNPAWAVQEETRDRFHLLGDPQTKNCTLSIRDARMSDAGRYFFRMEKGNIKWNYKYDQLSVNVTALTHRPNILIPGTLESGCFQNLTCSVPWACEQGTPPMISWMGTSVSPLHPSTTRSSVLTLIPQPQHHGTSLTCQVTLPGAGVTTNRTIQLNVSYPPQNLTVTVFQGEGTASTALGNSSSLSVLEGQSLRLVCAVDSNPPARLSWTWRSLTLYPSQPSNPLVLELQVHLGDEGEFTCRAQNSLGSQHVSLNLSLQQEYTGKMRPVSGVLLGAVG
# T2 sequence (P04275 764-1268): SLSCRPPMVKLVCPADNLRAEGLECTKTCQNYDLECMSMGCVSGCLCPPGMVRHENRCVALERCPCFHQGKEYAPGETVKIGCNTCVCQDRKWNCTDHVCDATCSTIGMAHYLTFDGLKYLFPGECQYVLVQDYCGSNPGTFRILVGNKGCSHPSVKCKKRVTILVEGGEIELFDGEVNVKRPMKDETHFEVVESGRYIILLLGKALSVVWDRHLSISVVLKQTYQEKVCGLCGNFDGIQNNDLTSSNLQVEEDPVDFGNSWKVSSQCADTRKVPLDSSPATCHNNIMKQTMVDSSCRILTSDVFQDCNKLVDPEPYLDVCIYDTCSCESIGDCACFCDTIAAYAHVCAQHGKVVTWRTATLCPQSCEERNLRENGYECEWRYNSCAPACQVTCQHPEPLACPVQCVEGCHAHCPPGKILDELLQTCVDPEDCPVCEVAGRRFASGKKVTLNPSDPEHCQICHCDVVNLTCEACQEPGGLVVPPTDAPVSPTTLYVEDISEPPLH
# T7 sequence (Q9Y336 18-348 limits assumed): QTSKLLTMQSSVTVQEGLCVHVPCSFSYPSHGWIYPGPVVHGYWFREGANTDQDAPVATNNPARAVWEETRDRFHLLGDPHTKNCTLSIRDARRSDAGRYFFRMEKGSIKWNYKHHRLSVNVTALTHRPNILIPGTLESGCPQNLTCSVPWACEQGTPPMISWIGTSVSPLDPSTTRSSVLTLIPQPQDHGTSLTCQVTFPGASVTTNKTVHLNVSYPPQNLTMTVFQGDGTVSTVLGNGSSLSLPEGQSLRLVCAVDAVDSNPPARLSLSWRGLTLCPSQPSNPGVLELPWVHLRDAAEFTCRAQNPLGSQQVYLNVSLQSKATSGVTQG
# T5 sequence (P04275 764-2813 limits assumed): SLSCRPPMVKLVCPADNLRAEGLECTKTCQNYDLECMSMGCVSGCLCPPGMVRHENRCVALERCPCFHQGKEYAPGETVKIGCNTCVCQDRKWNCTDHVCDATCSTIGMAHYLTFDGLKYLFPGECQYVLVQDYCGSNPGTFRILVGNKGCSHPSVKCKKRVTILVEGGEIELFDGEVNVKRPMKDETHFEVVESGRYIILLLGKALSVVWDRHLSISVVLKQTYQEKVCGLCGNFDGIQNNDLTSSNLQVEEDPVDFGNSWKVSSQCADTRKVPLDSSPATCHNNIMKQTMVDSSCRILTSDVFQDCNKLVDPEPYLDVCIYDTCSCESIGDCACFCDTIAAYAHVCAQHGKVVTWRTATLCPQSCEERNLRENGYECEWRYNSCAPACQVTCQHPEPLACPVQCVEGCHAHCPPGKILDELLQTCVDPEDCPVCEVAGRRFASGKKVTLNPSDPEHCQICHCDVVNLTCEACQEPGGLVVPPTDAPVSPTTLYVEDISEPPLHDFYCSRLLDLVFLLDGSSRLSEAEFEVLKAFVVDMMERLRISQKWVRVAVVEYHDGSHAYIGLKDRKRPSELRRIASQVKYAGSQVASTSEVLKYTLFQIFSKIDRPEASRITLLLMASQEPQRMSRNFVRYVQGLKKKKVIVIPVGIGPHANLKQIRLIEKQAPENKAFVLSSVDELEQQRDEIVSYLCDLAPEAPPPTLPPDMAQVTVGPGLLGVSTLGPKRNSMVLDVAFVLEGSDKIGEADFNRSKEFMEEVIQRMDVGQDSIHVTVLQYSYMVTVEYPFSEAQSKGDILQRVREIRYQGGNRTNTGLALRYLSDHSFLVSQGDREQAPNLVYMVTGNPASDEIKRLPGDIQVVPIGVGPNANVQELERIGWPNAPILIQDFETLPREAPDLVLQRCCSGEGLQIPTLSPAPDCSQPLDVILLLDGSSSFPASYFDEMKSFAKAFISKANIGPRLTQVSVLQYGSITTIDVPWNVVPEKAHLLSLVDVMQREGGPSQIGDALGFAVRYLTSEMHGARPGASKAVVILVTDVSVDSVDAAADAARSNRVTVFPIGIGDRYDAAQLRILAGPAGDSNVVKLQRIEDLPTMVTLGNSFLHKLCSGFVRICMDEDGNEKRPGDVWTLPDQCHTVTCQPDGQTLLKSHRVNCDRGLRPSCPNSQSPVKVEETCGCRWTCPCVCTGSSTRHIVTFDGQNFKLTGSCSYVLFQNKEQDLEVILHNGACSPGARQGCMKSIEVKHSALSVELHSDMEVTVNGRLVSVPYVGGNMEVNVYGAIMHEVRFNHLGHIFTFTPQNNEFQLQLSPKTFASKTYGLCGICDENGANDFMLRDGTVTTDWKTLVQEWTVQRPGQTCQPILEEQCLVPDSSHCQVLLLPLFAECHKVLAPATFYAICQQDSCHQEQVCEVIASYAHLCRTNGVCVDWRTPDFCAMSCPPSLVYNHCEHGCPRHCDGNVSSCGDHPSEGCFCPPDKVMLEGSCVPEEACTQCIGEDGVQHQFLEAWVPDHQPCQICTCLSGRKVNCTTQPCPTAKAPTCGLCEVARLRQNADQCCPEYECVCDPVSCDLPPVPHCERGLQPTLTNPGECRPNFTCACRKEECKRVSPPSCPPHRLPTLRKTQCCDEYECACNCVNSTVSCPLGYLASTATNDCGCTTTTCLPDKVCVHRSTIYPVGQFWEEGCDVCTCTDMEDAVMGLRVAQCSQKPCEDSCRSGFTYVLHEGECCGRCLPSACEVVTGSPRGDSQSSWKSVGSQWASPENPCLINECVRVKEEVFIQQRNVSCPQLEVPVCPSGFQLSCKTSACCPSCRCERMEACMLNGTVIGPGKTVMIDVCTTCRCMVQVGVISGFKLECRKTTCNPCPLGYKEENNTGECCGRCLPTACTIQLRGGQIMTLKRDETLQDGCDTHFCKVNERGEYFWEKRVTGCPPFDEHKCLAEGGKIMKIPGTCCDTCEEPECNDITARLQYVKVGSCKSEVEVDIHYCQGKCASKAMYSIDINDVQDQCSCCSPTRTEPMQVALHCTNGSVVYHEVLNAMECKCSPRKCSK
# T4 sequence (P04275 764-2813 limits assumed): as above
binder,measurement,setting,value
B1,Kd,[1],1030 nM
same,binding result,[2],no binding (tested: 1 µg/mL)
"FVIII (Nuwiq, Octapharma) (other, UniProt P00451 20-2351, looked up, Commercial product; also called recombinant FVIII; factor VIII) ATRRYYLGAVELSWDYMQSDLGELPVDARFPPRVPKSFPFNTSVVYKKTLFVEFTDHLFNIAKPRPPWMGLLGPTIQAEVYDTVVITLKNMASHPVSLHAVGVSYWKASEGAEYDDQTSQREKEDDKVFPGGSHTYVWQVLKENGPMASDPLCLTYSYLSHVDLVKDLNSGLIGALLVCREGSLAKEKTQTLHKFILLFAVFDEGKSWHSETKNSLMQDRDAASARAWPKMHTVNGYVNRSLPGLIGCHRKSVYWHVIGMGTTPEVHSIFLEGHTFLVRNHRQASLEISPITFLTAQTLLMDLGQFLLFCHISSHQHDGMEAYVKVDSCPEEPQLRMKNNEEAEDYDDDLTDSEMDVVRFDDDNSPSFIQIRSVAKKHPKTWVHYIAAEEEDWDYAPLVLAPDDRSYKSQYLNNGPQRIGRKYKKVRFMAYTDETFKTREAIQHESGILGPLLYGEVGDTLLIIFKNQASRPYNIYPHGITDVRPLYSRRLPKGVKHLKDFPILPGEIFKYKWTVTVEDGPTKSDPRCLTRYYSSFVNMERDLASGLIGPLLICYKESVDQRGNQIMSDKRNVILFSVFDENRSWYLTENIQRFLPNPAGVQLEDPEFQASNIMHSINGYVFDSLQLSVCLHEVAYWYILSIGAQTDFLSVFFSGYTFKHKMVYEDTLTLFPFSGETVFMSMENPGLWILGCHNSDFRNRGMTALLKVSSCDKNTGDYYEDSYEDISAYLLSKNNAIEPRSFSQNSRHQAYRYRRGEITRTTLQSDQEEIDYDDTISVEMKKEDFDIYDEDENQSPRSFQKKTRHYFIAAVERLWDYGMSSSPHVLRNRAQSGSVPQFKKVVFQEFTDGSFTQPLYRGELNEHLGLLGPYIRAEVEDNIMVTFRNQASRPYSFYSSLISYEEDQRQGAEPRKNFVKPNETKTYFWKVQHHMAPTKDEFDCKAWAYFSDVDLEKDVHSGLIGPLLVCHTNTLNPAHGRQVTVQEFALFFTIFDETKSWYFTENMERNCRAPCNIQMEDPTFKENYRFHAINGYIMDTLPGLVMAQDQRIRWYLLSMGSNENIHSIHFSGHVFTVRKKEEYKMALYNLYPGVFETVEMLPSKAGIWRVECLIGEHLHAGMSTLFLVYSNKCQTPLGMASGHIRDFQITASGQYGQWAPKLARLHYSGSINAWSTKEPFSWIKVDLLAPMIIHGIKTQGARQKFSSLYISQFIIMYSLDGKKWQTYRGNSTGTLMVFFGNVDSSGIKHNIFNPPIIARYIRLHPTHYSIRSTLRMELMGCDLNSCSMPLGMESKAISDAQITASSYFTNMFATWSPSKARLHLQGRSNAWRPQVNNPKEWLQVDFQKTMKVTGVTTQGVKSLLTSMYVKEFLISSSQDGHQWTLFFQNGKVKVFQGNQDSFTPVVNSLDPPLLTRYLRIHPQSWVHQIALRMEVLGCEAQDLY",Kd,[3],0.3 nM
B2,binding result,[4],no binding (tested: 0.8 µg/mL)
"Cluster 1 fragment (tryptic glycopeptide of plasma derived vWF, AA 449 to 511) (also: natural O-glycans (sialylated core 2), sites not given here, also called Cluster I; O-glycosylation Cluster I) peptide: VTLNPSDPEHC(Maleimide‑PEG2‑Biotin)QIC(Maleimide‑PEG2‑Biotin)HC(Maleimide‑PEG2‑Biotin)DVVNLTC(Maleimide‑PEG2‑Biotin)EAC(Maleimide‑PEG2‑Biotin)QEPGGLVVPPTDAPVSPTTLYVEDISEPPLHDFYC(Maleimide‑PEG2‑Biotin)SR",binding result,[5],no binding (tested: 4 µg/mL)
same,binding result,[6],no binding (tested: 4 µg/mL)
same,binding result,[7],no binding (tested: 4 µg/mL)
same,binding result,[8],no binding (tested: 4 µg/mL)
same,binding result,[9],no binding (tested: 4 µg/mL)
